Target: chicken F-actin (chicken) (UniProt P68139)
Test: co-sedimentation

Row | Substance | Kd
1 | Drosophila indirect flight muscle myosin isoform (IFI) subfragment-1 (S1), S532P mutant (domain or fragment) | 2000 nM
2 | Drosophila indirect flight muscle myosin isoform (IFI) subfragment-1 (S1), wild-type control (domain or fragment) | 1260 nM
